In article PMC3267324 (Molecular Cell, 2011):
Each block holds one binder with its values, some of them ahead of it.

What was measured:
[1] = biological target: T1, GST-tagged full-length PARI (human, UniProt Q9NWS1 1-579); assay: pull-down
T1 sequence (looked up): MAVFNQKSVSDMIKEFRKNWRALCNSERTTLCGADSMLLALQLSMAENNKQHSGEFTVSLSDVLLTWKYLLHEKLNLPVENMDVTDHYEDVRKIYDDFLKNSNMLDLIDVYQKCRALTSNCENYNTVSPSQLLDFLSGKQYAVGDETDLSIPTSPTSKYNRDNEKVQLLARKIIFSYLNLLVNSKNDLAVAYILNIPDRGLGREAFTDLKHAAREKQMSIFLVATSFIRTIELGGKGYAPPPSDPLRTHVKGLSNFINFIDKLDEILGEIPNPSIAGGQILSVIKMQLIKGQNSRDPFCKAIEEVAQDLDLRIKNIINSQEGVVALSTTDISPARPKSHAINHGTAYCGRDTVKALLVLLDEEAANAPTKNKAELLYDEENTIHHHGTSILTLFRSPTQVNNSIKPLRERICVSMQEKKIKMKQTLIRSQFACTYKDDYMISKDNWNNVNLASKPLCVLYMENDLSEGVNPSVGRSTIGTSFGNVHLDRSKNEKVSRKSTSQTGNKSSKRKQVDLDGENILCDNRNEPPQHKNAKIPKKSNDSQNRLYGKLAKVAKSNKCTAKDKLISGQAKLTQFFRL

[2] = biological target: T2, Recombinant Flag-tagged PARI purified from insect cells (human, UniProt Q9NWS1 1-579); assay: pull-down
T2 sequence (looked up): T1 sequence (looked up)

binding result [1]: binds
B1: Recombinant human RAD51 expressed and purified from bacteria (natural protein, UniProt Q06609 1-339, looked up)
chain: MAMQMQLEANADTSVEEESFGPQPISRLEQCGINANDVKKLEEAGFHTVEAVAYAPKKELINIKGISEAKADKILAEAAKLVPMGFTTATEFHQRRSEIIQITTGSKELDKLLQGGIETGSITEMFGEFRTGKTQICHTLAVTCQLPIDRGGGEGKAMYIDTEGTFRPERLLAVAERYGLSGSDVLDNVAYARAFNTDHQTQLLYQASAMMVESRYALLIVDSATALYRTDYSGRGELSARQMHLARFLRMLLRLADEFGVAVVITNQVVAQVDGAAMFAADPKKPIGGNIIAHASTTRLYLRKGRGETRICKIYDSPCLPEAEAMFAINADGVGDAKD

binding result [2]: binds
B2: GST-tagged human RAD51 (natural protein, UniProt Q06609 1-339, looked up)
chain: B1 chain
